Earlier results in paper PMC3496038.

Legend:
[1] = target: GluA3 NTD (Rattus norvegicus) (UniProt P19492); test: analytical ultracentrifugation
[2] = target: GluA1 NTD (Rattus norvegicus) (UniProt P19490); test: analytical ultracentrifugation

Substance | Kd [1] [nM] | Kd [2] [nM]
GluA3 NTD (from UniProt P19492) | 1000 | 
GluA1 NTD (from UniProt P19490) |  | 100
